Data taken from US20090011974A1, “Scavenger Receptor B1 (Cla-1) Targeting for the Treatment of Infection, Sepsis and Inflammation” (priority 2002, published 2009).
Where “and” joins values, the source holds several entries; their conditions need not be identical. Identical values can stand only once. Entries after “also recorded” stand apart in the source; their conditions may differ. Blank lines part the entries; values can stand above or below the molecule they belong to. Where a SMILES comes first, the peptide text is derived from it.

How the values were obtained:
THP-1 cells = settings: 20 μg/ml
Protocol: Assays for cytokines and lactate dehydrogenase (LD). Interleukins 6 and 8 (IL-6 and IL-8) and tumor-necrosis factor-α (TNF-α) are measured in culture supernatants of THP-1 cells using commercial ELISA kits (Biosource International, USA). LD activity was measured in the supernatants by a Hitachi 917 automated chemistry analyzer (Roche).

CLA-1 [1] = molecular target: T1, CLA-1 (Homo sapiens, UniProt Q8WTV0); experiment: FACS analysis of Alexa 488-SAA and Alexa 488-HDL uptake in HeLa cells; format: cell-based; settings: CLA-1 overexpressing HeLa cells
T1 construct: using the expression plasmid pTRE2 (Clontech, Pal Alto, Calif.), encoding a CLA-1 protein (pTRE2-CLA-1); expressed in transfected cells; host or cells: HeLa (Tet-off) cells (Clontech), stably co-transfected with pTRE2-CLA-1 and pTK-Hyg and selected with hygromycin
T1 sequence (Q8WTV0 1-509 isoform Q8WTV0-2): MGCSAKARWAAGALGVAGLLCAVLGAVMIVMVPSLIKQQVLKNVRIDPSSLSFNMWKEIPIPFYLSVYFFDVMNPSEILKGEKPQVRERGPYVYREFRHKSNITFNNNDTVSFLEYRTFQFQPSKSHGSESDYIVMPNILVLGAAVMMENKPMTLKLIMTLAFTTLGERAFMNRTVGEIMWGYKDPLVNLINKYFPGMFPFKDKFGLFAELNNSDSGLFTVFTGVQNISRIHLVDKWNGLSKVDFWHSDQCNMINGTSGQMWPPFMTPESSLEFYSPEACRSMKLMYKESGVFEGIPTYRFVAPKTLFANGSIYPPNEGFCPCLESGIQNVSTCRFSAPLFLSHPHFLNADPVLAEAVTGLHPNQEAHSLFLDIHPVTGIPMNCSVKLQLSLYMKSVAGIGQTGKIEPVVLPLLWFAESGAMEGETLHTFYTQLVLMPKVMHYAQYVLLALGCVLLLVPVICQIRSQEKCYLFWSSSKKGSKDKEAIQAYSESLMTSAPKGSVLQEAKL
Protocol: Ligand-uptake experiments. Binding experiments are performed at 37° C. using concentrations between 1.25 and 30 μg/ml. All incubations are performed in DMEM containing 2 mg/ml BSA. After a 2-hr-incubation […], the cells are rinsed with ice-cold PBS and released by a 30-min incubation in EDTA containing Cell stripper (CellGro, USA). Cells are resuspended and added to an equal volume of 4% paraformaldehyde in PBS. Cell fluorescence is analyzed by FACS analyses.

[2] = molecular target: T2, CLA-1 (CD36 and LIMPII Analogous-1), human scavenger receptor class B type I (human, UniProt Q8WTV0 1-552); experiment: flow cytometry of Alexa-488 SAA uptake
T2 construct: whole, on cells; Target is CLA-1 on stably transfected HeLa cells, compared with mock-transfected HeLa cells, which carry a low endogenous level of CLA-1; also called SR-BI/CLA-1; human SR-BI
T2 sequence (looked up): T1 sequence (Q8WTV0 1-509 isoform Q8WTV0-2)

CLA-1 [3] = molecular target: T1, CLA-1; experiment: Competition for Alexa 488-SAA uptake in CLA-1 overexpressing and mock transfected HeLa cells (FACS); format: binding; settings: mock transfected and CLA-1 overexpressing HeLa cells
Protocol: Competition experiments. Cells are cultured for 24 hr in serum free DMEM before experiments. […] For KKB-1 anti-CLA-1 blocking experiments, cells are pre-incubated with KKB-1 rabbit anti-serum (non-immune rabbit serum as a negative control) at a dilution of 1:10 followed by ligand addition to a final concentration of 5 μg/ml and a 1-hour incubation. Cell fluorescence was analyzed by FACS analyses.

Molecule: CC(C)C[C@H](NC(=O)[C@H](Cc1c[nH]c2ccccc12)NC(=O)[C@H](CC(=O)O)NC(=O)[C@@H]1CCCN1C(=O)[C@H](Cc1ccccc1)NC(=O)[C@H](C)NC(=O)[C@H](CCC(=O)O)NC(=O)[C@H](CCCCN)NC(=O)[C@H](CC(C)C)NC(=O)[C@H](CCCCN)NC(=O)[C@H](CCC(=O)O)NC(=O)[C@H](C)NC(=O)[C@@H](NC(=O)[C@H](CCCCN)NC(=O)[C@H](CC(=O)O)NC(=O)[C@H](Cc1ccc(O)cc1)NC(=O)[C@H](Cc1ccccc1)NC(=O)[C@H](C)NC(=O)[C@H](CCCCN)NC(=O)[C@H](CC(C)C)NC(=O)[C@H](Cc1c[nH]c2ccccc12)NC(=O)[C@@H](N)CC(=O)O)C(C)C)C(=O)N[C@@H](CCCCN)C(=O)N[C@@H](C)C(=O)N[C@@H](Cc1ccccc1)C(=O)N[C@@H](Cc1ccc(O)cc1)C(=O)N[C@@H](CC(=O)O)C(=O)N[C@@H](CCCCN)C(=O)N[C@H](C(=O)N[C@@H](C)C(=O)N[C@@H](CCC(=O)O)C(=O)N[C@@H](CCCCN)C(=O)N[C@@H](CC(C)C)C(=O)N[C@@H](CCCCN)C(=O)N[C@@H](CCC(=O)O)C(=O)N[C@@H](C)C(=O)N[C@@H](Cc1ccccc1)C(=O)O)C(C)C [Peptide L-37PA] (H-DWLKAFYDKVAEKLKEAFPDWLKAFYDKVAEKLKEAF-OH; N-terminus and C-terminus assumed)
toxic effect (LDH release, β-actin expression) (THP-1 cells): no apparent toxic effect

concentration at which SAA uptake plateaus (CLA-1 [1]): 2.5 µg/mL and 2.5 to 5 µg/mL
fold increase of uptake over mock transfected HeLa cells [2]: > 5 fold
B1: Serum Amyloid A1 (StressGene) (ligand, UniProt P0DJI8 19-122, looked up)
chain: RSFFSFLGEAFDGARDMWRAYSDMREANYIGSDKYFHARGNYDAAKRGPGGAWAAEVITDARENIQRFFGHGAEDSLADQAANEWGRSGKDPNHFRPAGLPEKY
notes: also called SAA; lipid-free SAA
competition with Alexa 488-SAA for CLA-1 (CLA-1 [3]): efficient competitor; also recorded: competed for CLA-1 binding with Alexa 488-SAA
